Four sequences from the supplement of paper PMC5998384 can be followed below.

Data set [1] has as its system HeLa Kyoto. As to the kind of experiment: solubility in G1/S (NP-40 vs SDS abundance) (log2 ratio); higher = more soluble. The following applies: cell cycle stage: G1/S.
For data set [2], the system named is HeLa Kyoto. The data set can be described thus: melting temperature (median over replicates), in situ; higher = more thermally stable.
The test system of data set [3] is HeLa Kyoto. The data set can be described thus: thermal stability score vs G1/S (z-score of summed log2 fold changes over temperatures); higher = more thermally stable than in G1/S.
Data set [4] has as its system HeLa Kyoto. As to the kind of experiment: solubility change mitosis vs G1/S (difference of NP-40 vs SDS log2 ratios) (log2 ratio difference); higher = more soluble in mitosis.
[5] abbreviates: cell cycle stage: early G1 (4.5 h after nocodazole release).
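Throughout, for melting temperature (median over replicates), in situ: HeLa Kyoto cells synchronized by double thymidine or nocodazole block, proteins quantified by TMT10plex mass spectrometry, three independent biological replicates.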
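Throughout, for solubility change mitosis vs G1/S (difference of NP-40 vs SDS log2 ratios): synchronized HeLa Kyoto cells (double thymidine block for G1/S, nocodazole release for mitosis), protein amounts in NP-40 versus SDS lysates quantified by mass spectrometry, three biological replicates.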
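Throughout, for solubility in G1/S (NP-40 vs SDS abundance): HeLa Kyoto cells arrested at G1/S by double thymidine block, proteins quantified by TMT10plex mass spectrometry in mild NP-40 versus SDS extracts, three biological replicates.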
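Throughout, for thermal stability score vs G1/S (z-score of summed log2 fold changes over temperatures): synchronized HeLa Kyoto cells, proteins quantified by TMT10plex mass spectrometry, three biological replicates, mitosis taken 0.5 h after nocodazole release, G1/S directly after double thymidine block.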

Consider “MAAAAPVAADDDERRRRPGAALEDSRSQEGANGEAESGELSRLRAELAGALAEMETMKAVAEVSESTKAEAVAAVQRQCQEEVASLQAILKDSISSYEAQITALKQERQQQQQDCEEKERELGRLKQLLSRAYPLDSLEKQMEKAHEDSEKLREIVLPMEKEIEELKAKLLRAEELIQEIQRRPRHAPSLHGSTELLPLSRDPSPPLEPLEELSGDGGPAAEAFAHNCDDSASISSFSLGGGVGSSSSLPQSRQGLSPEQEETASLVSTGTLVPEGIYLPPPGYQLVPDTQWEQLQTEGRQLQKDLESVSRERDELQEGLRRSNEDCAKQMQVLLAQVQNSEQLLRTLQGTVSQAQERVQLQMAELVTTHKCLHHEVKRLNEENQGLRAEQLPSSAPQGSQQEQGEEESLPSSVPELQQLLCCTRQEARARLQAQEHGAERLRIEIVTLREALEEETVARASLEGQLRVQREETEVLEASLCSLRTEMERVQQEQSKAQLPDLLSEQRAKVLRLQAELETSEQVQRDFVRLSQALQVRLERIRQAETLEQVRSIMDEAPLTDVRDIKDT [RABEP2]”, for which the “solubility in G1/S (log2)” value in data set [1] was 0.504. Moreover, the melting temperature in data set [2] (cell cycle stage: G1/S) stood at 49 °C; in data set [2] (cell cycle stage: mitosis), 50.6 °C. Also, the thermal stability score in data set [3] (setting [5]) is -0.553; in data set [3] (cell cycle stage: mitosis) it was 0.297. For the same sequence, the “solubility change mitosis (log2)” value in data set [4] is 0.304.
For the sequence “MAAADAEAVPARGEPQQDCCVKTELLGEETPMAADEGSAEKQAGEAHMAADGETNGSCENSDASSHANAAKHTQDSARVNPQDGTNTLTRIAENGVSERDSEAAKQNHVTADDFVQTSVIGSNGYILNKPALQAQPLRTTSTLASSLPGHAAKTLPGGAGKGRTPSAFPQTPAAPPATLGEGSADTEDRKLPAPGADVKVHRARKTMPKSVVGLHAASKDPREVREARDHKEPKEEINKNISDFGRQQLLPPFPSLHQSLPQNQCYMATTKSQTACLPFVLAAAVSRKKKRRMGTYSLVPKKKTKVLKQRTVIEMFKSITHSTVGSKGEKDLGASSLHVNGESLEMDSDEDDSEELEEDDGHGAEQAAAFPTEDSRTSKESMSEADRAQKMDGESEEEQESVDTGEEEEGGDESDLSSESSIKKKFLKRKGKTDSPWIKPARKRRRRSRKKPSGALGSESYKSSAGSAEQTAPGDSTGYMEVSLDSLDLRVKGILSSQAEGLANGPDVLETDGLQEVPLCSCRMETPKSREITTLANNQCMATESVDHELGRCTNSVVKYELMRPSNKAPLLVLCEDHRGRMVKHQCCPGCGYFCTAGNFMECQPESSISHRFHKDCASRVNNASYCPHCGEESSKAKEVTIAKADTTSTVTPVPGQEKGSALEGRADTTTGSAAGPPLSEDDKLQGAASHVPEGFDPTGPAGLGRPTPGLSQGPGKETLESALIALDSEKPKKLRFHPKQLYFSARQGELQKVLLMLVDGIDPNFKMEHQNKRSPLHAAAEAGHVDICHMLVQAGANIDTCSEDQRTPLMEAAENNHLEAVKYLIKAGALVDPKDAEGSTCLHLAAKKGHYEVVQYLLSNGQMDVNCQDDGGWTPMIWATEYKHVDLVKLLLSKGSDINIRDNEENICLHWAAFSGCVDIAEILLAAKCDLHAVNIHGDSPLHIAARENRYDCVVLFLSRDSDVTLKNKEGETPLQCASLNSQVWSALQMSKALQDSAPDRPSPVERIVSRDIARGYERIPIPCVNAVDSEPCPSNYKYVSQNCVTSPMNIDRNITHLQYCVCIDDCSSSNCMCGQLSMRCWYDKDGRLLPEFNMAEPPLIFECNHACSCWRNCRNRVVQNGLRARLQLYRTRDMGWGVRSLQDIPPGTFVCEYVGELISDSEADVREEDSYLFDLDNKDGEVYCIDARFYGNVSRFINHHCEPNLVPVRVFMAHQDLRFPRIAFFSTRLIEAGEQLGFDYGERFWDIKGKLFSCRCGSPKCRHSSAALAQRQASAAQEAQEDGLPDTSSAAAADPL [EHMT1]”, the “solubility in G1/S (log2)” value in data set [1] was -0.58. In data set [2] (cell cycle stage: G1/S), the melting temperature was found to be 50.2 °C. Moreover, the thermal stability score in data set [3] (setting [5]) is 1.22; in data set [3] (cell cycle stage: mitosis), 2.18. Besides, the “solubility change mitosis (log2)” value in data set [4] turned out to be 0.332.
Consider “MAAAGAAVARSPGIGAGPALRARRSPPPRAARLPRLLVLLAAAAVGPGAGGAARLYRAGEDAVWVLDSGSVRGATANSSAAWLVQFYSSWCGHCIGYAPTWRALAGDVRDWASAIRVAALDCMEEKNQAVCHDYDIHFYPTFRYFKAFTKEFTTGENFKGPDRELRTVRQTMIDFLQNHTEGSRPPACPRLDPIQPSDVLSLLDNRGSHYVAIVFESNSSYLGREVILDLIPYESIVVTRALDGDKAFLEKLGVSSVPSCYLIYPNGSHGLINVVKPLRAFFSSYLKSLPDVRKKSLPLPEKPHKEENSEIVVWREFDKSKLYTVDLESGLHYLLRVELAAHKSLAGAELKTLKDFVTVLAKLFPGRPPVKKLLEMLQEWLASLPLDRIPYNAVLDLVNNKMRISGIFLTNHIKWVGCQGSRSELRGYPCSLWKLFHTLTVEASTHPDALVGTGFEDDPQAVLQTMRRYVHTFFGCKECGEHFEEMAKESMDSVKTPDQAILWLWKKHNMVNGRLAGHLSEDPRFPKLQWPTPDLCPACHEEIKGLASWDEGHVLTFLKQHYGRDNLLDTYSADQGDSSEGGTLARGEEEEKRLTPPEVSHGDRDTQSVRPPGALGPRPALPESLHHSLDGKLQSLDGPGAHKEVGGAAPFLGVDFSSLDMSLCVVLYVASSLFLMVMYFFFRVRSRRWKVKHHHPAV [QSOX2]”, for which the “solubility in G1/S (log2)” value in data set [1] was found to be 0.207. Further, the melting temperature was 54.7 °C in data set [2] (cell cycle stage: G1/S) and 54.9 °C in data set [2] (cell cycle stage: mitosis). In addition, the thermal stability score in data set [3] (setting [5]) was -2.12; in data set [3] (cell cycle stage: mitosis), -0.982. For the same sequence, the “solubility change mitosis (log2)” value in data set [4] is 0.252.
“MAAAGGAEGRRAALEAAAAAAPERGGGSCVLCCGDLEATALGRCDHPVCYRCSTKMRVLCEQRYCAVCREELRQVVFGKKLPAFATIPIHQLQHEKKYDIYFADGKVYALYRQLLQHECPRCPELPPFSLFGDLEQHMRRQHELFCCRLCLQHLQIFTYERKWYSRKDLARHRMQGDPDDTSHRGHPLCKFCDERYLDNDELLKHLRRDHYFCHFCDSDGAQDYYSDYAYLREHFREKHFLCEEGRCSTEQFTHAFRTEIDLKAHRTACHSRSRAEARQNRHIDLQFSYAPRHSRRNEGVVGGEDYEEVDRYSRQGRVARAGTRGAQQSRRGSWRYKREEEDREVAAAVRASVAAQQQEEARRSEDQEEGGRPKKEEAAARGPEDPRGPRRSPRTQGEGPGPKETSTNGPVSQEAFSVTGPAAPGCVGVPGALPPPSPKLKDEDFPSLSASTSSSCSTAATPGPVGLALPYAIPARGRSAFQEEDFPALVSSVPKPGTAPTSLVSAWNSSSSSKKVAQPPLSAQATGSGQPTRKAGKGSRGGRKGGPPFTQEEEEDGGPALQELLSTRPTGSVSSTLGLASIQPSKVGKKKKVGSEKPGTTLPQPPPATCPPGALQAPEAPASRAEGPVAVVVNGHTEGPAPARSAPKEPPGLPRPLGSFPCPTPQEDFPALGGPCPPRMPPPPGFSAVVLLKGTPPPPPPGLVPPISKPPPGFSGLLPSPHPACVPSPATTTTTKAPRLLPAPRAYLVPENFRERNLQLIQSIRDFLQSDEARFSEFKSHSGEFRQGLISAAQYYKSCRDLLGENFQKVFNELLVLLPDTAKQQELLSAHTDFCNREKPLSTKSKKNKKSAWQATTQQAGLDCRVCPTCQQVLAHGDASSHQALHAARDDDFPSLQAIARIIT [ZNF598]”: in data set [1], the “solubility in G1/S (log2)” value was -0.223. Besides, the melting temperature amounted to 51.6 °C in data set [2] (cell cycle stage: G1/S) and 51.1 °C in data set [2] (cell cycle stage: mitosis). For the same sequence, the thermal stability score is -1.86 in data set [3] (setting [5]) and -0.526 in data set [3] (cell cycle stage: mitosis). Also, the “solubility change mitosis (log2)” value in data set [4] was 0.108.
